Reference: the supplement of paper PMC11811203

B1: THAP1; numbered along this chain (parent)
chain: MVQSCSAYGCKNRYDKDKPVSFHKFPLTRPSLCKEWEAAVRRKNFKPTKYSSICSEHFTPDCFKRECNNKLLKENAVPTIFLCTEPHDKKEDLLEPQEQLPPPPLPPPVSQVDAAIGLLMPPLQTPVNLSVFCDHNYTVEDTMHQRKRIHQLEQQVEKLRKKLKTAQQRCRRQERQLEKLKEVVHFQKEKDDVSERGYVILPNDYFEIVEVPA

Variants of: B1
Test: THAP1 transcriptional activity (GFP+/GFP- enrichment relative to wild-type constructs) (ratio to WT); higher = more THAP1 activity (PSMB5 reporter activation)
Conditions: with PSMB5 promoter-GFP reporter
Method in brief: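 Activity values are replicate-mean bright/dim read fold changes divided by the mean of wild-type synonymous constructs. They come from a human THAP1 site-saturation library (residues 2–213, each changed to all 20 amino acids) delivered by lentivirus at MOI ~0.3, in duplicate, into THAP1-knockout HEK-293T cells with mClover3 at endogenous PSMB5. BFP+ cells were sorted into GFP-dim and GFP-bright bins after five days, and variants were counted by Illumina sequencing of genomic DNA amplicons.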

THAP1 transcriptional activity of substitutions, site by site:
F132: K 1, A 0.892, D 0.363, C 0.597, P 0.285, Q 0.462, N 0.635, I 0.806, E 0.425, M 1.06, H 1.03, L 1.12, G 0.49
T125: E 1.1, A 1.2, M 0.329, Q 0.85, V 0.325, D 0.713, I 0.437, G 0.666, L 0.291, F 0.212, C 0.57, H 0.515, W 0.351, S 0.95, K 1.4, P 0.865, Y 0.322, R 0.432, N 0.786
Q124: Y 0.592, K 0.879, R 0.787, E 0.458, G 0.787, H 0.399, I 0.516, L 0.212, M 0.487, F 0.463, V 0.643, C 0.587, D 0.637, S 0.576, T 0.351, P 0.631, N 0.579, A 0.569, W 0.257
V131: Q 0.386, G 0.244, K 0.299, C 0.427, H 0.401, N 0.494, S 0.28, E 0.239, P 0.75, M 0.291, I 0.81, R 0.367, Y 0.27, D 0.241, L 0.533, T 0.276, A 0.451, W 0.261, F 0.399
V127: T 0.875, G 0.609, K 1.64, E 0.897, S 1.39, F 0.642, H 0.843, I 0.501, N 0.997, A 0.82, Y 0.411, Q 1.02, W 0.336, D 0.851, C 0.636, L 0.775, R 1.19, P 0.879, M 0.396
S130: L 0.324, K 0.625, H 0.517, Q 0.656, G 0.946, V 0.196, E 0.224, A 0.566, Y 0.1, N 0.651, R 0.271, D 0.555, M 0.164, W 0.276, I 0.104, P 0.611, T 0.436, C 0.265, F 0.246
N128: G 0.685, R 0.823, Q 0.507, W 0.283, M 0.264, Y 0.306, V 0.346, L 0.284, F 0.259, E 0.856, I 0.201, A 0.714, T 0.494, K 0.645, P 0.417, H 0.446, S 0.395, C 0.306, D 0.549
L123: W 0.642, Y 0.693, V 1.01
P126: K 0.562, H 0.531, G 0.386, L 0.216, A 0.618, I 0.18, E 0.744, N 0.551, Y 0.194, S 1.11, V 0.434, W 0.207, F 0.178, T 0.484, C 0.294, D 1.02, Q 0.962, R 0.51
L129: S 1.2, G 0.706, V 0.92, Y 0.843, R 1.86, H 1, N 1.4, F 1.16, P 0.79, K 1.95, Q 0.659, T 1.05, C 0.646, E 0.516, M 0.714, D 0.405, A 0.855, I 1.12, W 1.7
